Assays:
wtRANKL-induced mouse = assay: mtRANKL immunization in wtRANKL-induced osteoporosis mice, micro-CT; format: in vivo
Method: (§1) The right femur of each mouse subjected to each experiment was incised and CT imaging was performed using a Quantum GX pCT imaging system (PerkinElmer, Hopkinton, Mass., USA) located at the Korea Basic Science Institute in Gwangju. As for the X-ray source, the field of view was set to 45 mm, 90 kV and […] (voxel size, 90 μm; scanning time, 14 minutes). CT imaging was performed using a Quantum GX 3D Viewer software. After scanning, image segmentation was performed in Analyze (AnalyzeDirect, Overland Park, Kans., USA). Briefly, the legs were segmented using semi-automatic and manual tools (e.g., object extractor, area expansion, and object separator) using volume editing tools. Then, a 3D rendering of the leg was created, and bone mineral density (BMD), bone volume (BV), bone volume percentage (%), and trabecular thickness were calculated using the ROI tools.
(§2) 17-week-old […] BALB/c mice were equally divided into 3 groups. The group was divided into a negative control group in which PBS was intraperitoneally injected, a group in which only wtRANKL was injected, and a group in which wtRANKL was injected after immunization with mtRANKL for 52 days. mtRANKL was injected after mixing with an aluminum hydroxide adjuvant. The immunization process started with 1st immunization of mtRANKL at 52 days, 2nd immunization at 39 days, 3rd immunization at 14 days each before injection of wtRANKL, and a total of 3 immunizations was performed. The amount of mtRANKL was 0.2 mg per mouse.
After 52 days, PBS was injected into the negative control group and wtRANKL was injected into the other two groups. Next day, wtRANKL was injected once more. wtRANK was subcutaneously injected (2.0 mg/kg). Serum was collected to determine the titer of anti-RANKL antibody. Then, after extracting tibias, the adhesive soft tissues of tibias were removed.
To examine whether RANKL has a bone destruction effect when RANKL was injected after immunization with mtRANKL, micro-CT analysis was performed by the method of Reference Example 6.

isolated spleen cells = assay: Th1/Th2 cytokine secretion of isolated spleen cells; format: cell-based, mouse; conditions: culture supernatant of Sham and IM splenocytes stimulated with sRANKL or mRANKL-MT3
Excerpt: To determine whether mRANKL-MT3 immunization influences Th1 and Th2 cytokine production, we evaluated the effects of mRANKL-MT3 on IL-4 and IL-10 secretion, which are markers for Th2 responses, and IFN-γ, a marker for Th1 responses, in the culture supernatant of isolated spleen cells stimulated with sRANKL or mRANKL-MT3 (FIG. 8C).

BMMs = assay: F-actin ring formation assay; format: cell-based, mouse; conditions: mRANKL-MT3 150 ng/mL
Method: We used bone-resorption and F-actin ring formation assays to investigate osteoclast activity. To observe bone resorption in vitro, BMMs were cultured in Corning Osteo Assay Surface 96-well Multiple Well Plates (Sigma) with 30 ng/mL M-CSF and 75 ng/mL sRANKL (soluble RANKL; R&D Systems) or isolated RANKL for 6 days. Then, the plates were washed with pure water. To monitor actin ring formation, BMMs were grown on glass slides. After culture, the cells were fixed with 4% formalin, permeabilized with 0.5% Triton X100 in PBS for 5 min at room temperature, and incubated with 0.5 mg/mL TRITC-labelled phalloidin for 30 min. The cells were then rinsed with PBS. F-actin rings were visualized using a fluorescence ECLIPSE Ts2R microscope (Nikon, Tokyo, Japan).

RANK and LGR4 signaling = assay: Western blots of RANK and LGR4 signaling pathway proteins, RANKL variants; format: cell-based, mouse
Method: (§3) Proteins were separated by SDS-PAGE and electropermeated into a nitrocellulose membrane (Bio-Rad). After blocking the membrane with 5% (weight/volume) skim milk in TBST [10 mM Tris (pH 7.5), 150 mM NaCl, 0.1% (vol/vol) Tween 20], each mouse serum for primary antibody in the blocking solution was examined. The membrane was washed three times with Tris buffered saline. […] peroxidase (HRP)-conjugated secondary antibody was diluted 1:5000 with TBST in 1% (wt/vol) skim milk powder. ECL_system (Amersham Pharmacia Biotech) was used as the membrane.
Primary antibodies: AKT (Cell Signaling Technology, 1:1000), phospho-AKT (Cell Signaling Technology, #9271S, 1:1000), p38 (Cell Signaling Technology, 9212S, 1:1000), phospho-p38 (Cell Signaling Technology, #9211S, 1:1000), ERK (Cell Signaling Technology, 9102S, 1:1000), phospho-ERK (Cell Signaling Technology, #9101S, 1:1000), JNK (Cell Signaling Technology, 9252S, 1:1000), phosphoJNK (Cell Signaling Technology, #9251S, 1:1000), GSK-3β (Cell Signaling Technology, 9315S, 1:1000), phosphoGSK-3β (Cell Signaling Technology, #9336S, 1:1000), Src (Cell Signaling Technology, 2108S, 1:1000), phosphoSrc (Cell Signaling Technology, #2105S, 1:1000), NF-KB p65 (Cell Signaling Technology, #3034, 1:1000), phosphop65 (Cell Signaling Technology, #3031, 1:1000), RANK (Cell Signaling Technology, 4845S, 1:1000), Gaq (Cell Signaling Technology, 14373S, 1:1000), LGR4 (MyBioSource, MBS468030, 1:500), 20112360C-1, and GAPDH (Santa-Cruz Biotechnology, 1:2500).
To investigate the interaction of mRANKL variants and RANK, the co-immunoprecipitation (Co-IP) assays were carried out using mRANKL-WT/mRANKL-MT3 and RANK/LGR4 (FIG. 12A). In addition, wild-type RANKL induced MAPK, AKT, NF-κB p65, and GSK-3 phosphorylation, which is involved in LGR4 signaling (FIG. 12B).

RANKL = assay: Western blot of serum for antibodies after mtRANKL immunization; format: in vivo, mouse; conditions: mice immunized 3 times with 0.2 mg mtRANKL with aluminum hydroxide adjuvant
Method: as §3, §2
To determine whether antibodies were produced due to mtRANKL immunization, Western blot of Reference Example 4 was performed on the collected serum, and the results are shown in FIG. 6A.

BALB/c mice = assay: Bone destruction by injected mtRANKL, micro-CT; format: in vivo, mouse; conditions: subcutaneous 1.0 mg/kg three times a week
Method: as §1
To investigate the bone-destructive effect of mtRANKL, 4-week-old male BALB/c mice (Orient Bio) were placed in a cage capable of accommodating up to 4 animals in a light-controlled environment ([…]) and provided with autoclaved water and both whole and powdered rodent diet (Purina, St. Louis, Mo., USA). Starting from 6 weeks of age, 9 mice were randomly divided into three groups, and each group was subcutaneously injected with wild-type RANKL (Amgen, Thousand Oaks, Calif., USA), mtRANKL purified in Reference Example 2, and saline three times a week (1.0 mg/kg). The trabecular bone in femoral neck was examined by Micro-CT analysis described in Reference Example 6.

[1] = wtRANKL-injected mice vs mtRANKL-immunized mice with wtRANKL injection

B1: mRANKL-MT3: mouse RANKL mutant: K180R, D189I, R190K, H223F, H224Y; nucleic acid SEQ ID NO: 3 (protein, UniProt O35235 158-316, looked up, variant K180R D189I R190K H223F H224Y)
chain: KPEAQPFAHLTINAASIPSGSHRVTLSSWYHIKGWAKISNMTLSNGKLRVNQDGFYYLYANICFRFYETSGSVPTDYLQLMVYVVKTSIKIPSSHNLMKGGSTKNWSGNSEFHFYSINVGGFFKLRAGEEISIQVSNPSLLDPDQDATYFGAFKVQDID
- bone volume and percentage of bone volume (wtRANKL-induced mouse; compared with PBS-treated mice): maintained at similar levels
- BMD of tibias (wtRANKL-induced mouse; [1]): 795.8 ± 11.9 mg/mL
- trabecular bone architecture of proximal tibias (micro-CT) (wtRANKL-induced mouse; [1]): thicker fibers and higher density than the wtRANKL-injected mice
- IFN-γ levels (isolated spleen cells): no significant differences
- IL-4 and IL-10 secretion (isolated spleen cells): significantly increased
- F-actin ring formation (BMMs): no resorption pits or F-actin rings were observed
- GSK-3 phosphorylation (RANK and LGR4 signaling; BMMs, Western blot): induced
- MAPK, AKT, and NF-κB p65 phosphorylation (RANK and LGR4 signaling; BMMs, Western blot): lower
- src phosphorylation (RANK and LGR4 signaling; mRANKL-MT3-induced BMMs vs mRANKL-WT induced BMMs): significantly lower
- antibodies in serum (Western blot) (RANKL): antibodies were detected
- trabecular bone by Micro-CT (osteoporosis) (BALB/c mice): no significant change was observed

— patent US20210403586A1, “MUTANT OF RANKL AND PHARMACEUTICAL COMPOSITION COMPRISING SAME FOR PREVENTING OR TREATING OSTEOPOROSIS” (INDUSTRY-ACADEMIC COOPERATION FOUNDATION CHOSUN UNIVERSITY, priority 2018, published 2021)
